Results published in the nanobody polyreactivity screen of Harvey et al. (2022).

Test: yeast display, Sf9 membrane polyspecificity reagent, FACS + sequencing; frameworks hold sequencing errors
Method in brief: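 Nanobodies from a synthetic yeast display library (Saccharomyces cerevisiae BJ5465), induced 36–48 hours with galactose, were stained 1 hour at 4 °C with 10% biotinylated, detergent-solubilized Sf9 membrane reagent, enriched on streptavidin microbeads, then FACS-sorted. Anti-HA (expression) and streptavidin (reagent binding) fluorescence set low and high (top ~1%) gates. Polyreactivity labels come from the gate of origin. Genes were colony-PCR amplified, MiSeq 2 × 250 sequenced and filtered by CDR length.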

Sequence	polyreactivity (PSR sort gate)
QVQLVESGGGLVQAGGSLRLSCAASGIIFVENAMGWYRQAPGKERDLVASGDSTYADSVKGRFTIARDNAKNTVYLQMNSLKPEDNAVYYCNTDGYPRLYIYDYWGQGTQVTVSS	low polyreactivity
QVQLVESGGGLVQALGSLRLSCAASGFIFGYNAMGWYRQAPGQERELVAAISSSGGSTYYADSVKGRFTISRDNAKNTVYLQMNSLKPEDTAVYYGAARPVALRKYDYWGLGTQVTVSS	low polyreactivity
QVQLVESGGGLVQAGGSLRLSCAASGRIFTLYTMGWYRQAPGKERELVAAINRGGSTTYADSVKGRFTISRDNAKNTVYLQMNSLKPEDTAVYYCAAYRYTSRVYSYWRGYDYWGQGTQVTVSS	high polyreactivity
QVQLVESGGGLVQAGGSLRLSCAASGRTIVSNAMGWYRQAPGKERELVAAITRGSRTYYADSVKGRFTISRDNAKNTVYLQMNILKPEDTAVYYCAAYRDYGSYGSWGQGTQVTVSS	high polyreactivity
QVQLVESGGGLVQAGGSLRLSCAASGRTFEIYAMGWYRHAPGKERELVAAISSSGGSTYYADSVKGRFTISRDNAKNTVYLQMNSLKPEDTAVYYCAARYRATLTRTRVGYWGQGTQLTVSS	high polyreactivity
QVQLVESGGGLVQAGGSLRLSCAASGLIFRTYTMGWYRQAPGKERELVATITRRCGTTYYADSVKGRFTISRDNAKNTVYLQMNSLKPEDTAVYYFAKSPYYTWKYDYWGQGTQVTVSS	high polyreactivity
QVQLVESGGGLVQAGGSLRLSCAASGFTFFYYAIRWYRQAPGKEREVVAAISSNGGRTYYADSVKGRFTISRDNAKNTVYLQMYSLKPEDTAVYYCTALRYVVYFDDDYWGQGTQVTVSS	high polyreactivity
QDQLVESGGGLVQAGGSLRLSCAASGSTLGYNAMGWYRQAPGKERELVAAIRGGDDDTYYADSVKGRFTISRDNAKNTVYLQMNSLKPEDTAVYYCATGDTSIPYSTPGGYDSWGQGTQVTVSS	low polyreactivity
QVQLVESGGGLVQAGGSLRLSCAASGSTFRPYAMGWYRQAPGKEMELVARMTGSGDSTYYADSVKGRFTISRDNAKNTVYLQMNSLKPEDTAVYYCNALYTSLRKYNYWGQGTQVTVSS	low polyreactivity
QVQLVESGGGLVQAGGSLRLSCAASGSIFAVYTMGWYRQAPGKEREVVAAITKSGGRTYYADSVKGRFTISRDNAKNTVYLQMNSLKPEDTAVYYCARRRTIPYTLVDYDSWGQGTQVTVSS	low polyreactivity
QVQLVESGGGLVQAGGSLRLICAASGSIFPHYAMGWYRPAPGKERELVAAISRGGSTNYADSVKGRFTISRDNAKNTVYLQMNSLKPEDTAVYYCNALRYYSRFMYAVAYRYDYWGQGTQVTVSS	high polyreactivity
QVQLVESGGGLVQAGGSLRLSCAASGRTLQHYAMGWYRQAPGKERELVAGITKNGGSTYYADSVKGRFTISRDNAKNTVYLQMNSLKPEDTAVYYCAKRWGGYSIPLDYDYWGQGTQVTVSS	low polyreactivity
QVQLEESGGRLVQAGGSLRLICAASGRIFRFYTMGWYIQAPGKERELVAAITSSGRTYYADSVKGRFTISRDNAKNTVYLQMKSLKPEDTAVYYCNKYFRPRTILPSPGEYLGQGTQVTVSS	high polyreactivity
QVQLVESGGGLVQAGGSLRLSCAASGGIFDSYAMGWYRQAPGKERELVADITWSGGSTYYADSVKGSFTISRDNAKNTVYLQMNSLKPEDTAVYLCAAVWNSPYDYWGQGTLVTVSS	low polyreactivity
QVQLVESGGGLVQAGGSLRLSCDASGSTSPGYAMGWYRQAPGKERELVAAITFRGTRTYYADSVKGRFTISRDNAKNTVYLQINSLKPEDTAVYYCNVVGYGPNRGRVDYWGQGTQVTVSS	high polyreactivity
QVQLVESGGGLVQAGGSLRLSCASSGRTFYDNTMGWYRQAPGKERELVAGISYSGGSTYYADSVKGRFTISRDNAKNTVYLQMNSLKPEDTAVYYCNAELYFPYFDGKTRHGGYWGQGTQVTVSS	low polyreactivity
QVQLVESGGALVQAGGSLRLSCAASGFILNKNVMGWYRQPPRKERELVAAITGSGGRTYYADSVKGRFTISRDNAKNTVYLQMNCLKPEDTAVFYCNALPGTQYNYWGQGTQVTVSS	high polyreactivity
QVQLVESGGGLVQAGGILRLSWAASGSTFTAYAMGWYRQAPGKERELVAAINTSGGNTYYADSVKGRFTISRDNAKNTVYFQMNSLKPEDTAVYYCAADYKARYSEKFDYWGQGTQVSVSS	low polyreactivity
QVQLVESGGGLVQAGGSLRLSCAASGRTFFIYAMGWYRQAPGKERELVAAIRWRGGSTYYADSVKGRFTISRDNAKNTVYLQMNSLKPEDTAVYYCAASNRQARYEDYYWGQGTQVTVSS	high polyreactivity
QVQVVESGGGLVQAGGSLRLRCAASGRSFVRNAMGWYRQAPGKEREFVAAINSGGSTYYADSVKGRFTISRDNAKNTVYLQMNSLKPEDTAVYYCAAELHIYYSWYWYDYWGQGTQVTVSS	high polyreactivity
QVQLVESGGGLVQAGGSLRLSCAASGRILGRYAMGWYRQAPGKERELVAAITARTGSTYYADSVKGRFTISRDNAKNTVYLQMNSLKPEDTAVYYCAAERGWWRNDFDYWGQGTQVTVSS	high polyreactivity
QVQLVESGGGLVQAGGSLRLSCAASGRTFAWYAMGWYRQAPGKERELVAAISSSGGTTYYADSVKGRFTISRDNAKNTVYLQMNSLKPEDTAVYYCAARPGFWEYWGWWYDRYEYWGQGTQVTVSS	low polyreactivity

Sequence	polyreactivity (PSR sort gate)
QVQLVESGGGLVQAGGSLRLSCAASGSIFKTNAMGWYRQAPGKERELVAAIRASGGSTYYADSVKGRFTISRDNAKNTVYLQMNSLKPEDTAVYYCAARYWFKYYWGQGTQVTVSS	high polyreactivity
QVQLVESGGGLVQAGGSLRLSCAASGIFVYYAMGWYRQAPGKERELVAAISSTGTSTYYADSVKGRFTISRDNAKNTVYLQMNSLKPEDTAVYYCAARGYAKRGYWGQGTQVTVSS	high polyreactivity
QVQLVESGGGLVQAGGSLRLSCAASVLIFHTYGMGWYRQAPGKERELVADITDGGSTYYADSVKGRFTISRDNAKNTVYLQMNSLKPEDTAVYYCAADERGVFLTYWYFWYDYWGQGTQETVSS	low polyreactivity
QVQLVESGGGLVQAGGSLRLTCAASGGIFSYNAMGWYRQAPGKERELVAAISDSSTRTYYADSVKGRFTISRDNAKNTVYLQIKSLKPEDTAVYYCAARHSRTRHTSDYWGQGTQVTVSS	high polyreactivity
QVQLLDSGGGLVQAGGSLRLSCAASGSIFGRNAMVWYRQAPGKEREFVATITSRGGRTYYADSVKGRFTISRDNAKNTVYLQMNSLKPEDTAVYYCAADTYISTLKKYRLGDYWGQGTQVTVSS	low polyreactivity
QVQLVESGGGLVQAGGSLRLSCAASGRTLRRYAMGWYRQAPGKERELVAAITSGGTTNYADSVKGRFTISRDNAKNTVYLQMNSLKPEDTAVYYCNARKSSGLSSYDWYSWEYGYWGQGTQVTVSS	low polyreactivity
QVQLVESGGGLVQAGGSLRLSCAPSGRIFPYYAMGRYRQAPGKERELVATITASSGSTYYADSVKGRFTISRDNAKNTVYLQMNSLKPEDTAVYYCAAGFVYRPGSYIRFDYWGQGTQVTVSS	high polyreactivity
QVQLVESGGGLVQAGGSLRLSCAASGRTFNVYAMGWYRQAPGKERELVAAISIGGRTNYADSVKGRFTISRDNAKNTVYLQMNSLKPEDTAVYYCAADTRRKYGGMYYWGQGTQVTVSS	high polyreactivity
QVQLVESGGGLVQAGGSLRLSCAASGSTFAYNDMGWYRQAPGKETELVADIRSGGNTNYADSVKGRFTISRDNAKNTVYLQMNSLKPEDTAVYYCATDGYRFDVYHPDYRYDYWGQGTQVTVSS	low polyreactivity
QVQLVESGGGLVQAGGSLRLSCAASGSTLYRNGMGWYRQAPGKEMEFVAAISWSGASTYYADSVKGRFTISRDNAKNTVYLQMNSLKPEDTAVYYCNARGPTVYETHNYWGQGTQVTVSS	low polyreactivity
QFQLEESRRGLDQAGGSLRLSCAASGSIFTLYDMGWYRQAPGKERELVAAITSGGSTDYADSVKGRFTISRDKAKNTVFLQMNSLKPEDTAVYYCAADTFYIYEDVLYVQGDYYWGQGTQVTVSS	low polyreactivity
QVQLVESGGGLVQAGGSLRLSCAASGSTFVGYAMGWYRLAPGKEREFVAAITRGGSTNYADSVKGRFTISRDNAKNTVYLQMNSLKPEDTAVYYCAARDRREGFNFDYCGQGTQVTVSS	low polyreactivity
QVQLVESGGGLVQAGGSLRLSCAASGRTLVPYAMGWYRQAPGKERELVAAINSSGGSTYYADSVKGRFTISRDNEKNTVYLQMNSLKPEDTAVYYCNVQSVHFRLWKDNYWGQGTQVTVSS	high polyreactivity
QVQLVESGGGLVQAGGSLRLSCAASGSTFFTNAMGWYRQAPGKERELVAAITINDGSTFYADSVKGRFTISRDNAKNTVYLQMNSLKPEDTAVYYCNADGVDLYDYWGQGTQVTVSS	low polyreactivity
QVQLVESGGGLVQAGGSLRLSCAASGILFSAHAMGWYRQAPGKERELVAAISKSGSRTYYADSVKGRFTISRDNAKNTVYLQMNSLKPEDTAVYYCNAVTYSRRYAYYYWGQGTQVTVSS	high polyreactivity
QVQLVESGGGLVQAGGSLRLSCAASGSTFQFYAMGWYRQAPGKERELVAVITSGDDTNYADSVKGRFTISRDNAKNTVYLQMNSLKPEDTAVYYCAVEYILVYTRVRSYWFDYWGQGTQVTVSS	low polyreactivity
QVQLVESGGGLVQAGGSLRLSCAASGSIFNSYDMGWYRQAPGKERELVAAIRSRVGSTYYADSVKGRFTISRDNAKNSVYLQMNSLKQEDTAVYYCIKDNAVDRLPWFQVTYDYWGQGTQVTVSS	low polyreactivity
QVQLVESGGGLVQAGGSLRLSCAASGITFVRNALGWYRQAPGKEREFVAAISWSGGSTYYADSVKGRFTISRDNAKNTVYLQMNSLKPEDTAVYYCNAGSSYLSRFPLDYWGQGTQVTVSS	high polyreactivity
QVQLVESGGGLVQAGGSLRLSCAASGYTFDYYAMGWYRQAPGKERELVAAIRRGGSTYYADSVKGRFTISRDNAKNTVYLQMNSLKPEDTAVYYCAAVIYRDGTIYDYWGQGTQVTVSS	high polyreactivity
HVQLVESGGGLVQAGGSLRLSCPASGRIFYRNPMGWYRQAPGKERELVAGISKRGGSTYYADSVKGRFTISRDNAKNTVYLQMNSLKPEDTAVYYCATVPYSPPSAGPEYDYWGQGTQVTVSS	high polyreactivity
QVQLVESGGGLVQAGGSLRLSCAASGRTFNYYAMGWYRPAPGKERELVAAISGSGGRTYYADSVKGRFTISRDNAKNNVYLQMNSLKPVDTAVYYCNADVGKYPYAHTYWARRYYYWGQGTQVTVSS	high polyreactivity
